Experimental data from PMC2843815 (Protein expression and purification, 2010).

Molecular target: the molecule itself
Experiment: SEC-MALS

B1: Bor1p (natural protein, S. cerevisiae)
chain: MSNESTRVTVSRGCTASDECAQALERTNDELDRESSVSESRSDEESHEKLSRRRFPTLGIGIWLDLKDRIPYYKSDWVDAFNYRVIPSIVDTYFNNLLPAIAFAQDMFDRTDNSYGVNEVLLSSAMAGIVFGVLGGQPLCIVGVTGPISIFNYTVYEIIKPLNTSYFGFMFWICMWSMIFHLVLAFTNAVCLLQYVTTFPCDIFGLFINVVYIQKGIQILTRQFSAKSGEKSVQDGFASVVVALVMTAFGLFFKLFHYYPLFSHRIRTFISDYSTALSVLFWSSFTHFGGYLHDVKFKKLPITKAFFPTSKVNRPQNTWLAYEPIPVKDVFIALPFGIFLTILFYFDHNVSSLMAQRHQYKLKKPSSFHYDFALLGLTTCISGVLGIPAPNGLIPQAPLHTETLLVRDSNQKVISCVEQRFTNTFQGLMILGTMTRPLLVCLGEIPQAVLSGLFFIMGINGLMTNSIIQRLVFLFSDPNRRDNTSPLMKVSKKSMLIFLSFSLTGFAGEFAITNTIAAIGFPLVLLLSVLVSFSFAYIFPTEELKILDTNVAQKFTIKNLLLENIRDAKFCDKHEDSGLEVLFQ
In the case of B1, the “stoichiometry N” value is reported as 2.
